This note sets out measurements from patent US7833513B2, “Treatment of Alzheimer's Disease” (Rhode Island Hospital, priority 2004, dated 2010).

For this test, the target named is T1, IGF-II receptor (Homo sapiens, UniProt P11717).
T1 construct: membrane extracts of postmortem frontal lobe tissue as the sources of receptors; from tissue; host or cells: postmortem frontal lobe tissue, homogenates pooled per Braak stage group
The test is described as follows: Saturation binding (Scatchard) of [125I]-IGF-II to postmortem frontal lobe membrane extracts by AD Braak stage. Also on record: unit not given here. The method, then:
Protein concentration was determined using the bicinchoninic acid (BCA) assay (Pierce, Rockford, Ill.). Preliminary studies determined the amounts of protein and concentrations of radiolabeled ligand required to achieve 20% specific binding.
IGF-I binding assays required 25 μg protein per sample, and IGF-II receptor binding assays were performed with 10 μg protein. Equilibrium binding assays were used to assess growth factor binding levels in relation to AD stage severity. This was accomplished by determining net specific binding after incubating the protein samples at 4° C. overnight with a fixed amount of radioligand, in the presence or absence of excess cold ligand and then subtracting the values obtained for non-specific binding from those corresponding to the total binding. To measure total binding, individual protein samples were incubated in 100 μl reactions containing binding buffer (100 mM HEPES, pH 8.0, 118 mM NaCl, 1.2 mM MgSO4, 8.8 mM dextrose, 5 mM KCl, 1% bovine serum albumin) and 100 nCi/ml [^125I] […] To measure non-specific binding, replicate samples were prepared as indicated with the addition of 0.1 μM unlabeled (cold) ligand.
Saturation binding assays were performed to assess top-level (maximum) binding and binding affinity in relation to AD stage severity. Samples from 8-12 brains per Braak stage group were pooled in equal proportions and used to generate binding curves. Protein concentrations of the pooled homogenates were determined with the BCA assay. Duplicate samples were incubated in 100 μl reaction volumes containing binding buffer and 0.0031 to 1 μCi/ml of [^125I] […] To measure non-specific binding, duplicate reactions were incubated with the same concentrations of radiolabeled ligand plus 0.1 μM unlabeled (cold) competitive ligand. The data were graphed and analyzed using the GraphPad Prism 4 software to calculate the Bmax, kD (dissociation constant), and their standard deviations and 95% confidence intervals.
Reactions were performed in 1.5 ml Eppendorff tubes at 4° C. for 16 hours with gentle platform agitation. […] The samples were counted for 1 minute each in an LKB CompuGamma CS Gamma counter. Specific binding was calculated by subtracting CPM or fmol of non-specific binding, i.e., amount bound in the presence of cold ligand, from the total CPM or fmol bound (absence of unlabeled competitive ligand). After determining that the data fit a one-site rather than a two-site model, the results were analyzed using non-linear regression to calculate saturation binding (Bmax) and binding affinity (kD) with Scatchard analysis performed to measure saturation binding and binding affinity using GraphPad Prism 4 software (GraphPad Software, Inc., San Diego, Calif.).

T1 sequence (P11717 41-2491): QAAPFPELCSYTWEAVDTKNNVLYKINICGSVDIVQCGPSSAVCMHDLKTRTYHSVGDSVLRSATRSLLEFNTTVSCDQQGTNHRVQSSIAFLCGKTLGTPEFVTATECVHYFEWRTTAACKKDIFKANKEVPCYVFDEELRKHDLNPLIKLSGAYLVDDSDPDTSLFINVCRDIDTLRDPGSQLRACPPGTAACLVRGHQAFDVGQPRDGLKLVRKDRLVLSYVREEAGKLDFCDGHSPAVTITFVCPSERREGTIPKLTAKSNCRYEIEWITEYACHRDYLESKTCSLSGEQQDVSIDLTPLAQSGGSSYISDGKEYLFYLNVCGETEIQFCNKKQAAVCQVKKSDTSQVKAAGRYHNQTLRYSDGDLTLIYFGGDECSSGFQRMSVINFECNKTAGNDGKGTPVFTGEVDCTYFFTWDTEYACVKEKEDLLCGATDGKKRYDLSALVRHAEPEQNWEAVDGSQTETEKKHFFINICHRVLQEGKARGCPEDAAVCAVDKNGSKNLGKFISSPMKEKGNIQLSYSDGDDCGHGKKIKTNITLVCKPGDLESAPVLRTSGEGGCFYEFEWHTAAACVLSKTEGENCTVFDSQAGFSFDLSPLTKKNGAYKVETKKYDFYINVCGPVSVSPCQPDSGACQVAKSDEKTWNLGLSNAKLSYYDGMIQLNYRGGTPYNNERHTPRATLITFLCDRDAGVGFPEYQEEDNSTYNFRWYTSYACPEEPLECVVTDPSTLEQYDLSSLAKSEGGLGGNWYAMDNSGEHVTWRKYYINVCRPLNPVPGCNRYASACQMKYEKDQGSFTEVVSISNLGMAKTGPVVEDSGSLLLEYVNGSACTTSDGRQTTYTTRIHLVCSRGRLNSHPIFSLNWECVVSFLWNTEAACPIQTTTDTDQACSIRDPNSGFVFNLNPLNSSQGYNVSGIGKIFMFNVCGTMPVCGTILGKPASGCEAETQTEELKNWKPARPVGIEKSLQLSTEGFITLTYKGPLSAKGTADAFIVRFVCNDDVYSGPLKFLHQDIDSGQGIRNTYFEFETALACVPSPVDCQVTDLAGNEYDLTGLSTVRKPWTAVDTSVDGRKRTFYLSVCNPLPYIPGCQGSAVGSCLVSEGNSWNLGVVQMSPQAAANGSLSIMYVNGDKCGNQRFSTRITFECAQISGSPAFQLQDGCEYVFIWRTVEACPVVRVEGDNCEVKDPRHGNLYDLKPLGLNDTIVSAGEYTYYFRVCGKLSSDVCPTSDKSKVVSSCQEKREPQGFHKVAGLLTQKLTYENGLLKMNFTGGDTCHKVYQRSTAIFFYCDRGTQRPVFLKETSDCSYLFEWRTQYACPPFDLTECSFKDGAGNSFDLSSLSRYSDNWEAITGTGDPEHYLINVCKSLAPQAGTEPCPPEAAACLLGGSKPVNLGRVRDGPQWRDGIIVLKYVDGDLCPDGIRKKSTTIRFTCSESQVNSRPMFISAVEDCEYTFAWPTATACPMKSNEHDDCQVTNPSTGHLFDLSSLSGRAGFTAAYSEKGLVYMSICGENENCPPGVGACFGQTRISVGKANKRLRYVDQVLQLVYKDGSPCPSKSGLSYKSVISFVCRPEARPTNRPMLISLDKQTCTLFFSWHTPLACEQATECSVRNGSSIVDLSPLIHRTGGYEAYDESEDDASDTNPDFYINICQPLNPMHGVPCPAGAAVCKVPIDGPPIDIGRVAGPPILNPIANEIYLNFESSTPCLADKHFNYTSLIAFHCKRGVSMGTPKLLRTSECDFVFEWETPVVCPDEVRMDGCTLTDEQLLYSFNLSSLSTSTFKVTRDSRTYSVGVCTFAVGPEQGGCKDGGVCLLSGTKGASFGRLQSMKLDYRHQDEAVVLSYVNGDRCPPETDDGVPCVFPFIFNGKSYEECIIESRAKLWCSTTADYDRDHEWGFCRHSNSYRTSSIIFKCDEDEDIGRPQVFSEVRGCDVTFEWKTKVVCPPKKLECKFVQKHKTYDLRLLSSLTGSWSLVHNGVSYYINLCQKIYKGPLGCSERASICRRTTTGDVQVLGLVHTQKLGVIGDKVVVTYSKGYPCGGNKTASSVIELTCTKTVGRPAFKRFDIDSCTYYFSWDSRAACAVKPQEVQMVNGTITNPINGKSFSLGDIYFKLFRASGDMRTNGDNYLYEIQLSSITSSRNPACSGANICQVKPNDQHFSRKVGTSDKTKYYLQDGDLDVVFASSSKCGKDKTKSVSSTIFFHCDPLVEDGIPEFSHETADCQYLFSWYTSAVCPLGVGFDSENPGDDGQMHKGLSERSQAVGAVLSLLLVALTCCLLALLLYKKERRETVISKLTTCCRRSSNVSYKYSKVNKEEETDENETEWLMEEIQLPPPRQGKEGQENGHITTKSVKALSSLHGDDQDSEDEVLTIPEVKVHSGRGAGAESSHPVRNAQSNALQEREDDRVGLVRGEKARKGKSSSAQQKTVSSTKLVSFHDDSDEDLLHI

With “IGF-II: [125I]-labeled IGF-II used as tracer in brain membrane binding assays”, the “BMAX, IGF-II binding” value is listed as 16.83 (Braak 0-1), 12.53 (Braak 2-3), 8.136 (Braak 4-5) and 4.713 (Braak 6).
